US20120328616A1 (Amgen, published 2012)

Assays:
human FGFR1c = molecular target: T1, human FGFR1c (human, UniProt P11362 22-822); assay: flow cytometry, transfected HEK293T; mock-transfected cells 648
T1 construct: Full length (GenBank NP-075598), expressed on transfected 293T cells; also called huFGFR1c; FGFR1c alone
Protocol: (§1) This solution was then added dropwise to 10 million HEK293T cells in 10 ml of media. 24 hours following transfection, the cells were washed and 50,000 cells were stained with each primary antibody, 50 μl of unpurified hybridoma supernatant was diluted 1:2 and used for staining cells. After a one hour incubation at 4° c., the cells were washed and an anti-Human Fc-specific secondary was added. Stained cells were then analyzed on a flow cytometer.

[1] = molecular target: T2, human FGFR1c/human β-Klotho complex (FGF21 receptor) (human, UniProt P11362 22-822); assay: as above
T2 construct: Both full-length proteins co-expressed on cells (HEK293T, CHO, L6); also called HuFGFR1c/Hu β-Klotho; huFGF21R
Protocol: as §1

[2] = molecular target: T3, cynomologous monkey FGFR1c/cynomologous monkey β-Klotho (co-transfected) (cynomologous monkey); assay: as above
T3 construct: whole, on cells; also called Cyno FGFR1c/Cyno β-Klotho
Protocol: as §1

[3] = molecular target: T3, cynomologous monkey FGFR1c/cynomologous …; assay: flow cytometry, transfected HEK293T; mock-transfected cells 723
Protocol: as §1

| GeoMean (human FGFR1c) | GeoMean [1] | GeoMean [2] | GeoMean [3] | Binder |
| --- | --- | --- | --- | --- |
| 706 | 17900 | 25900 |  | 49G3.3 (antibody, V domains shown) VH: QVTLKESGPVLVKPTETLTLTCTVSGFSLSNPRMGVSWIRQPPGKALEWLTHIFSNDEKSYSTSLKSRLTISKDTSKSQVVLSMTNMDPVDTATYYCVRVDTLNYHYYGMDVWGQGTTVTVSS VL: DIQMTQSPSSLSASIGDRVTITCQASQGISNYLNWYQQKPGKAPKLLIYDASNLETGVPSRFSGSGSGTDFTFTISSLQPEDIATYYCHQYDDLPLTFGGGTKVEIRR |
|  |  |  | 36500 | 51E5.1 (antibody, V domains shown) VH: QVQLQQWGAGLLKPSETLSLTCAVYGGSFSGYYWSWIRQPPGKGLEWIGELDHSGSINYNPSLKSRVTISVDTSKNQFSLKLTSVTAADTAVYYCARVLGSTLDYWGQGTLVTVSS VL: DIQMTQSPSSLSASVGDRVTITCRASQDIRNDLGWYQQKPGKAPNRLIYAASSLQFGVPSRFSGSGSGTEFTLTISSLQPEDFATYYCLQHSSYPLTFGGGTRVEIKR |
